Measurements: PMC7808939

Key:
Fbxl8 [1] = molecular target: Fbxl8 (UniProt Q8CIG9); experiment: anti-HA co-IP, blot for cyclin D3; conditions: reference: wild type Flag-cyclin D3; sites T283
Fbxl8 [2] = molecular target: Fbxl8 (UniProt Q8CIG9); experiment: co-immunoprecipitation; conditions: reference: wild type cyclin D3; sites T283

| Substance | binding against the reference (Fbxl8 [1]) | binding against the reference (Fbxl8 [2]) |
| --- | --- | --- |
| cyclin D3 (from UniProt P30282) Flag-cyclin D3 T283A | weaker | – |
| cyclin D3 (from UniProt P30282) T283A | – | lost |
